Residue numbers refer to the chain shown, from its start.
T1: hIL1RAP (Homo sapiens, UniProt Q9NPH3)
T1 sequence (Q9NPH3 21-367 limits assumed): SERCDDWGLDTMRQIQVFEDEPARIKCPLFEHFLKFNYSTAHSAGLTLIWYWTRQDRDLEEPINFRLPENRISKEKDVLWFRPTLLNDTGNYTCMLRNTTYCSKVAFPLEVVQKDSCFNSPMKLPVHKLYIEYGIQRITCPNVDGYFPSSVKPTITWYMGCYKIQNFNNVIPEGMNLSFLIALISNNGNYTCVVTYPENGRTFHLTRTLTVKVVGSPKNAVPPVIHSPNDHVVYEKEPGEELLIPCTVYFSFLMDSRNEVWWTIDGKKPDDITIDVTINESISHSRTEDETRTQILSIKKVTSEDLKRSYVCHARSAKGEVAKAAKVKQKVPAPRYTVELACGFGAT

T2: IL1R1/IL1β/IL1RAP complex (Homo sapiens, UniProt Q9NPH3)
T2 construct: extracellular domain Fc-tagged, Cat #10121-H02H; Fc; purchased Sino Biological 10121-H02H (IL1RAP-Fc); 10126-H08H (IL1R1-His); 10139-HNAE (IL1β)
T2 sequence (Q9NPH3 21-367 limits assumed): T1 sequence (Q9NPH3 21-367 limits assumed)

B1: 74804_12A21B: anti-IL1RAP mAb; VH SEQ ID NO:6, VL SEQ ID NO:23, κ light chain (antibody, V domains shown)
VH: QVQLLQSGAEVKKPGSSVKVSCKASGGTFSIYAIDWVRQAPGQGLEWMGGIIPIFGTANSAQKFQGRVTITADKSTSTAYMELSSLRSEDTAVYYCARNGATSDAFDMWGQGTMVTVSS
VL: EIVLTQSPGTLSLSPGERATLSCRASLSVSSNYLAWFQQRPGQAPRLLIHGVSRRATGIPDRFSGSGSGTDFTLTISRLEPEDFAVYYCQQYGSSPLTFGGGTKVEIK
modifications: 74804_12A21B VH and 74804_29D13A VH; 74804_12A21B VL
B2: 74804_43F04A: anti-IL1RAP mAb; VH SEQ ID NO:7, VL SEQ ID NO:22, κ light chain (antibody, V domains shown)
VH: B1 VH with A58E, K63N, V68I, S77N, M108I, S118F
VL: B1 VL with H50Y
modifications: 74804_43F04A VH; 74804_07K10A VL, 74804_29D13A VL and 74804_43F04A VL

Columns and labels:
cyIL1RAP = experiment: Kinetics of IL1RAP mAbs by Octet, cynomolgus IL1RAP; format: binding
Experimental: (§1) Antibodies were diluted in kinetics buffer (0.1% BSA, 0.02% Tween-20 and 0.05% NaN3 in PBS) and loaded onto 16 channel anti-mouse IgG Fc capture sensors (AMC, Cat #2001073; Sartorius, Göttingen, Germany). Human, huIL1RAP-His (Sino Biological, lot: MB08MA1301), and monkey, cyIL1RAP-His (Lake Pharma, NY, USA; lot:16205819371) proteins were titrated starting from the highest concentration of 100 nM and followed by 50 nM and 25 nM. Purified antibodies were loaded at 5 μg/ml in kinetics buffer. The experimental parameters selected to determine the kinetic constants were Baseline for 60 s, Loading of antibody to sensor for 180 s, Association of analyte to antibody for 120 s, Dissociation for 1200 s and Regeneration in 10 mM Glycine pH 1.7 for 4×30 s.
(§2) Regeneration cycle tracking was selected for 12 cycles. Binding to human and cynomolgus IL1RAP was measured and KD (M) kinetics were calculated. Also, the disassociation rate (Kdis) (1/s) and association rate (Kon) (1/Ms) kinetics were calculated (data not shown).

hIL1RAP = molecular target: T1, hIL1RAP; experiment: Kinetics of IL1RAP mAbs by Octet, human IL1RAP; format: binding; design: extracellular domain His-tagged, Cat #10121-H08H; His; purchased Sino Biological lot MB08MA1301 (catalogue number not given)
Experimental: as §1, §2

[1] = molecular target: T2, IL1R1/IL1β/IL1RAP complex; experiment: Blocking of IL1R1/IL1β/IL1RAP complex formation, cell-free ELISA; format: biochemical; conditions: FIG. 4
Experimental: High-binding 96-well plates were coated with IL1RAP-Fc protein (Sino Biological, Cat #10121-H02H) at concentration of 4 µg/ml and incubated overnight at 4° C. After 3× washes with 0.05% Tween-20 in PBS, pH 7.5, plates were blocked with 1% BSA in PBS for 1 hour at room temperature. Following, wells were incubated with each antibody at concentration of 50 nM for 1 hour at room temperature. Plates were then washed 3× and wells were incubated with premixed complex of IL1R1-His protein (Sino Biological, Cat #10126-H08H) at concentration of […] and IL1β cytokine (Sino Biological, Cat #10139-HNAE) at concentration of […] 1 hour at room temperature. IL1R1/IL1β complex was preincubated in assay buffer (1% BSA in PBS, pH 7.5) for 20 min at room temperature. After 3× washes, plates were incubated with anti-His HRP detection antibody (Medna, Cat #D8212, […]) for 1 hour at room temperature. Following 5× washes, SuperPico chemiluminescent substrate was applied to wells and signal was read on Spectramax M5.

A549 cells = experiment: IL-1-induced IL-6 secretion, ELISA; format: cell-based, human; conditions: 66 nM-2 μM, 72 hours, dose-dependent
Experimental: Methods: A549 cells were seeded on CytoOne® 24 well plate (USA Scientific, Cat #CC7682-7524) at 0.05×10^6/mL and were kept at 37° C./5% CO2 in humified incubator. After 6 hours, the cells were treated with IL-1β (0.5 ng/ml) in the presence or absence of IL1RAP antibodies at 66 nM, 200 nM, 666 nM and 2 μM at 37° C./5% CO2 in humified incubator. Cell culture media was collected after 72 hours and was centrifuged at 4° C. for 5 min. All supernatant samples were analyzed in triplicates. Human IL-6 microplate (R&D Part #890045) was incubated for 2 hours at room temperature with standard, control, or supernatant samples (100 μl) diluted in assay diluent RD1W (100 μl). Samples were aspirated and washed with wash buffer (R&D, cat #895003) four times. Human IL-6 conjugate (200p1) (R&D, cat #890046) was added to each well and incubated for 2 hours at room temperature. Aspiration/wash step was repeated as stated above. Equal volume of substrate color reagent A (R&D, cat #895000) and B (R&D, cat #895001) were mixed, and the substrate solution (200 μl) was added to each well and incubated for 20 minutes at room temperature in the dark. Stop solution (50p1) (R&D, cat #895032) was added to each well and optical density was determined at 450 nm by Cytation™ Cell Imaging Multi-Mode Reader (BioTek).

A431 cells = experiment: IL-36-induced IL-8 secretion, ELISA; format: cell-based, human; conditions: IL-36γ, 72 hours, dose-dependent
Experimental: Methods: A431 cells were seeded on CytoOne® 24 well plate (USA Scientific, Cat #CC7682-7524) at 0.05×10^6/mL and were kept at 37° C./5% CO2 in humified incubator. After 6 hours the cells were treated with IL-36γ (0.5 ng/ml) in the presence or absence of IL1RAP antibodies at 66 nM, 200 nM, 666 nM and […]. Cell culture media was collected after 72 hours and was centrifuged at 4° C. for 5 min. All supernatant samples were analyzed in triplicates. Human IL-8 microplate (R&D cat #890462) was incubated for 2 hours at room temperature with standard, control, or supernatant samples (1001) diluted in assay Diluent RD1-85 (1001). Samples were aspirated and washed with wash buffer (R&D Part #895003) for four times. Human IL-8 conjugate (200 μl) (R&D cat #890465) was added to each well and incubated for 2 hours at room temperature. Aspiration/wash step was repeated as stated above. Equal volume of substrate color reagent A (R&D, cat #895000) and B (R&D, cat #895001) were mixed, and the substrate solution (200 ul) was added to each well and incubated for 20 minutes at room temperature in the dark. Stop solution (501) (R&D, cat #895032) was added to each well and optical density of each well was determined at 450 nm with Cytation™ Cell Imaging Multi-Mode Reader (BioTek).

Row | Molecule | cyIL1RAP kdis(1/s) (cyIL1RAP) [s⁻¹] | cyIL1RAP kon(1/Ms) (cyIL1RAP) [M⁻¹ s⁻¹] | hIL1RAP kdis(1/s) (hIL1RAP) [s⁻¹] | hIL1RAP kon(1/Ms) (hIL1RAP) [M⁻¹ s⁻¹] | Blocking of IL1R1/IL1β/IL1RAP complex formation [1] | IL-1-induced IL-6 secretion (A549 cells) | IL-36-induced IL-8 secretion (A431 cells)
1 | B1 | 0.000441 | 342200 | 0.000287 | 307700 | block IL1R1/IL1β/IL1RAP complex formation in a dose dependent manner | inhibited | inhibited
2 | B2 | 0.0004 | 412100 | 0.000149 | 350200 | block IL1R1/IL1β/IL1RAP complex formation in a dose dependent manner | inhibited | inhibited
